Experimental findings from patent US20070184519A1 (published 2007) are described below.

One assay concerns the target HLA-DR DRB1*0101 (human). As to the kind of experiment: competition with 125I probe, purified MHC II.
A further assay has as its target HLA-DR DRB4*0101 (human). Nature of the assay: competition with 125I probe, purified MHC II.
Another assay concerns the target HLA-DR DRB5*0101 (human). As to the kind of experiment: competition with 125I probe, purified MHC II.
For another assay, the target named is HLA-DR DRB1*0401 (human). Nature of the assay: competition with 125I probe, purified MHC II.
The target of assay [1] is DRB1*0901 (human, UniProt P01903 26-216, limits assumed). Nature of the assay: inhibition of 125I-labelled probe peptide binding to purified HLA class II.
Assay [2] concerns the target DRB1*1101 (human, UniProt P01903 26-216, limits assumed). The description is as above.
Assay [3] deals with DRB1*1302 (human, UniProt P01903 26-216, limits assumed). The description is as above.
Another assay has as its target HLA-DR DRB3*0101 (human). As to the kind of experiment: competition with 125I probe, purified MHC II.
For a further assay, the target named is HLA-DR DRB1*0802 (human). Nature of the assay: competition with 125I probe, purified MHC II.
In a further assay the target is DRB1*0301 (human, UniProt P01903 26-216, limits assumed). Nature of the assay: competition vs 125I probe peptide, purified MHC II.
The target in a further assay is DRB1*0802 (human, UniProt P01903 26-216, limits assumed). As to the kind of experiment: competition vs 125I probe peptide, purified MHC II.
Assay [4] concerns the target DRB1*1302 (human, UniProt P01903 26-216, limits assumed). Nature of the assay: competition vs 125I probe peptide, purified MHC II.
A further assay concerns the target DRB1*0401 (human, UniProt P01903 26-216, limits assumed). As to the kind of experiment: competition vs 125I probe peptide, purified MHC II.
In another assay the target is DRB1*0404 (human, UniProt P01903 26-216, limits assumed). Nature of the assay: competition vs 125I probe peptide, purified MHC II.
A further assay has as its target DRB1*0701 (human, UniProt P01903 26-216, limits assumed). As to the kind of experiment: competition vs 125I probe peptide, purified MHC II.
For the next assay, the target named is DRB1*0101 (human, UniProt P01903 26-216, limits assumed). As to the kind of experiment: competition vs 125I probe peptide, purified MHC II.
Assay [5] addresses DRB1*1101 (human, UniProt P01903 26-216, limits assumed). Nature of the assay: competition vs 125I probe peptide, purified MHC II.
Another assay concerns the target DRB5*0101 (human, UniProt P01903 26-216, limits assumed). Nature of the assay: competition vs 125I probe peptide, purified MHC II.
A further assay addresses DRB1*0405 (human, UniProt P01903 26-216, limits assumed). Nature of the assay: competition vs 125I probe peptide, purified MHC II.
The next assay concerns the target DRB4*0101 (human, UniProt P01903 26-216, limits assumed). As to the kind of experiment: competition vs 125I probe peptide, purified MHC II.
The target of assay [6] is DRB1*0901 (human, UniProt P01903 26-216, limits assumed). As to the kind of experiment: competition vs 125I probe peptide, purified MHC II.
The target of assay [7] is HLA-DR molecule DRB1*0404 (human). As to the kind of experiment: competition vs 125I probe, purified HLA.
Assay [8] concerns the target HLA-DR molecule DRB1*1101 (human). Nature of the assay: competition vs 125I probe, purified HLA.
Assay [9] concerns the target HLA-DR molecule DRB1*1302 (human). Nature of the assay: competition vs 125I probe, purified HLA.
The target in assay [10] is HLA-DR molecule DRB4*0101 (human). Nature of the assay: competition vs 125I probe, purified HLA.
Assay [11] deals with HLA-DR molecule DRB5*0101 (human). As to the kind of experiment: competition vs 125I probe, purified HLA.
Assay [12] addresses HLA-DR molecule DRB1*0802 (human). Nature of the assay: competition vs 125I probe, purified HLA.
The target of assay [13] is HLA-DR molecule DRB1*0101 (human). As to the kind of experiment: competition vs 125I probe, purified HLA.
The target in assay [14] is HLA-DR molecule DRB1*0301 (human). As to the kind of experiment: competition vs 125I probe, purified HLA.
Assay [15] deals with HLA-DR molecule DRB1*0401 (human). Nature of the assay: competition vs 125I probe, purified HLA.
Assay [16] deals with HLA-DR molecule DRB1*0701 (human). Nature of the assay: competition vs 125I probe, purified HLA.
Assay [17] addresses HLA-DR molecule DRB1*0405 (human). Nature of the assay: competition vs 125I probe, purified HLA.
In assay [18] the target is HLA-DR molecule DRB1*0901 (human). Nature of the assay: competition vs 125I probe, purified HLA.
For another assay, the target named is T1, HLA-DR DRB1*0405 (human).
T1 chain 1: not shown
T1 chain 2: not shown
Nature of the assay: competition with 125I probe, purified MHC II.

The target of assay [19] is HLA-DR molecule DRB1*1101 (DR5w11) (human). As to the kind of experiment: inhibition of radiolabelled probe peptide binding to purified MHC class II.
Assay [20] deals with HLA-DR molecule DRB5*0101 (DR2w2a) (human). The description is as above.
Assay [21] concerns the target HLA-DR molecule DRB1*0901 (DR9) (human). The assay is described as above.
Assay [22] deals with HLA-DR molecule DRB1*1302 (DR6w19) (human). The assay is described as above.

B1: NP7 (TPO Y535-551) (peptide)
peptide: YLDPLIRGLLARPAKLQV
For B1, the half-maximal inhibitory concentration (IC50) in the assay with HLA-DR DRB1*0101 worked out at 1.6 nM; with HLA-DR DRB4*0101, 341 nM; with HLA-DR DRB5*0101, 476 nM; with HLA-DR DRB1*0401 it was 687 nM.

B2: DTFRKLFRVYSNDLR (peptide)
peptide: DTFRKLFRVYSNDLR
Consider B2, for which the values for the IC50 with DRB1*0901 [1], with DRB1*1101 [2] and with DRB1*1302 [3] were 1640 nM, 3.6 nM and 66 nM, respectively.

B3: Torp. Ach Rec. 195-212 (peptide)
peptide: DTPYLDITYHFVMQRLPL
On to B3, for which the IC50 in the assay with HLA-DR DRB1*0101 turned out to be 385 nM; with HLA-DR DRB3*0101 it was 800 nM; with HLA-DR DRB4*0101, 261 nM; with HLA-DR DRB1*0401 it was 160 nM; with HLA-DR DRB1*0802, 555 nM.

B4: DTFRKLDRVYSNFLR (peptide)
peptide: DTFRKLDRVYSNFLR
B4: the IC50 with DRB1*0301 came out at 2810 nM; with DRB1*0802, 87 nM.

B5: DTGRKLFRVYSNFLR (peptide)
peptide: DTGRKLFRVYSNFLR
With B5, the half-maximal inhibitory concentration (IC50) with DRB1*1302 [4] came to 7.5 nM; in the assay with DRB1*0401 it was 46 nM; with DRB1*0404, 175 nM; with DRB1*0701 it was 312 nM; with DRB1*0802 it was 53 nM.

B6: DTFRKNFRVYSNFLR (peptide)
peptide: DTFRKNFRVYSNFLR
Consider B6, for which the IC50 with DRB1*0101 is 62 nM; with DRB1*0401 it was 91 nM; in the assay with DRB1*0404, 922 nM; with DRB1*1101 [5], 5 nM.

B7: DTFRKQFRVYSNFLR (peptide)
peptide: DTFRKQFRVYSNFLR
As to B7, the IC50 stood at 4.9 nM in the assay with DRB5*0101, 270 nM with DRB1*0404, 3000 nM with DRB1*0701 and 81 nM with DRB1*0802.

B8: DTFRKLFRVYSNFGR (peptide)
peptide: DTFRKLFRVYSNFGR
Consider B8, for which, in the assay with DRB1*0401, the IC50 is 50 nM. In other words, the double-digit nanomolar range.

B9: DTFRKLFRVYSNDLR (peptide)
peptide: DTFRKLFRVYSNDLR
Take B9: the IC50 in the assay with DRB1*0404 stood at 812 nM; with DRB1*0405 it was 487 nM; with DRB1*0701 it was 817 nM.

B10: DTKRKLFRVYSNFLR (peptide)
peptide: DTKRKLFRVYSNFLR
Regarding B10, the IC50 with DRB1*0101 turned out to be 13 nM; with DRB1*1302 [4], 4.9 nM; in the assay with DRB4*0101, 738 nM; in the assay with DRB1*0301, 6490 nM.

B11: DTPRKLFRVYSNFLR (peptide)
peptide: DTPRKLFRVYSNFLR
As to B11, the IC50 in the assay with DRB1*0101 was 13 nM; in the assay with DRB4*0101, 418 nM; in the assay with DRB1*0401 it was 40 nM; with DRB1*0405, 6.9 nM; with DRB1*0701, 87 nM; with DRB1*0901 [6] it was 28 nM.

B12: DTFRKLFRVYSNFGR (peptide)
peptide: DTFRKLFRVYSNFGR
B12: the 50% inhibitory concentration (IC50) in the assay with DRB1*1101 [2] is 2.8 nM.

B13: EPO 101 analog GLRSLGTLLRALGAQ (peptide)
peptide: GLRSLGTLLRALGAQ
With B13, the IC50 in assay [7] turned out to be 13 nM; in assay [8] it was 1.4 nM; in assay [9], 739 nM; in [10], 473 nM; in assay [11], 13 nM.

B14: EPO 101 analog GLRSLTTLLDALGAQ (peptide)
peptide: GLRSLTTLLDALGAQ
With B14, the figures for the IC50 in assay [7] and in assay [12] were 9.3 nM and 240 nM, respectively.

B15: EPO 101 analog GLRSLTTLLGALGAQ (peptide)
peptide: GLRSLTTLLGALGAQ
On to B15, for which the IC50 in assay [13] came out at 1.3 nM.

B16: EPO 101 analog GLRSLTTLARALGAQ (peptide)
peptide: GLRSLTTLARALGAQ
On to B16, for which the IC50 amounted to 234 nM in [14]; 13 nM in assay [7]; 7.1 nM in assay [12]; 0.93 nM in assay [8]; 610 nM in assay [9].

B17: EPO 101 analog GLRSLTTRLRALGAQ (peptide)
peptide: GLRSLTTRLRALGAQ
For B17, the IC50 in assay [13] came out at 2.4 nM; in assay [15], 211 nM; in assay [16] it was 4370 nM.

B18: EPO 101 analog GLRSLTTLPRALGAQ (peptide)
peptide: GLRSLTTLPRALGAQ
As for B18, the IC50 in [7] amounted to 13 nM; in assay [17], 524 nM; in assay [12], 7.3 nM; in assay [8] it was 0.62 nM; in assay [10], 112 nM; in assay [11] it was 2.8 nM.

B19: EPO 101 analog GLRSLTTLNRALGAQ (peptide)
peptide: GLRSLTTLNRALGAQ
For the molecule B19, the IC50 in assay [15] worked out at 28 nM; in assay [18], 337 nM; in [8] it was 0.97 nM; in [10], 167 nM; in assay [11], 0.89 nM.

B20: EPO 101 analog GLRSLTTLSRALGAQ (peptide)
peptide: GLRSLTTLSRALGAQ
For B20, the IC50 came out at 13 nM in [7]; 719 nM in [17]; 2230 nM in assay [18]; 1.4 nM in [8]; 440 nM in assay [9].

B21: EPO 101 analog GLRSLTTLTRALGAQ (peptide)
peptide: GLRSLTTLTRALGAQ
For the molecule B21, the IC50 in [15] was 394 nM; in assay [8], 3 nM; in assay [11], 13 nM.

B22: HBV Pre S1 21-47 (peptide)
peptide: PLGFFPDHQLDPAFGANSNNPDWDFNP
modifications: not checked
The molecule B22 showed an IC50 with HLA-DR DRB1*0405 (human) of 31 nM. This lies in the double-digit nanomolar range.

B23: EPO 101 analog peptide GLRSLTTRLRALGAQ (SEQ ID NO: 192) (peptide)
peptide: GLRSLTTRLRALGAQ
B23: the IC50 in assay [19] turned out to be 0.79 nM; in assay [20], 13 nM.

B24: EPO 101 analog peptide GLRSLTTLLDALGAQ (SEQ ID NO: 193) (peptide)
peptide: GLRSLTTLLDALGAQ
For B24, the IC50 in assay [21] stood at 277 nM; in [22], 953 nM.
